The target in data set [1] is T1, beta-lactoglobulin (UniProt P02754 P02754:17-178).
T1 sequence: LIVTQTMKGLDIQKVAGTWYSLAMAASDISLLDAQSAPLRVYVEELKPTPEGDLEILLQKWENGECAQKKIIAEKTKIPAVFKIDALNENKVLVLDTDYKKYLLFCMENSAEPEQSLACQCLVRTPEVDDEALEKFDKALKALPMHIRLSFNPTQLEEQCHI
Briefly: magnetic bead strand-displacement fluorescence assay, 37 C; aptamer hybridised to biotinylated short chain, released by 50 ug/mL protein; ITC in 10 mM Tris-HCl. The settings on record: label: 5'-FAM (fluorescence assay); stem-loop (Mfold predicted). The protocol: (§1) Various concentrations (10 nM, 25 nM, 50 nM, 75 nM, 100 nM, 150 nM, 200 nM, and 300 nM) of the aptamer were respectively mixed with the biotinylated complementary short chain at a molar ratio of 1:1.5, denatured at 95° C. for 10 min, and slowly cooled to 37° C. for 3 h until the two were fully hybridized. The mixture was reacted with a certain amount of streptavidin-coupled magnetic beads (where the weight ratio of the aptamer to the magnetic beads was 1:400) at 37° C. and 200 rpm for 2 h to immobilize the aptamer on the magnetic beads by the strong binding between the biotin and streptavidin. The immobilized magnetic beads were incubated with 50 μg/mL β-lactoglobulin in a 300 μL system at 37° C. and 200 rpm. After magnetic separation, the supernatant was subjected to fluorescence measurement at an excitation wavelength of 485 nm and an emission wavelength of 522 nm. The relative fluorescence intensity at various aptamer concentrations was nonlinearly fitted by GraphPad prism 5.0 software, and the dissociation constant Kd of the aptamer was calculated (see Table 1). […] The homologous sequences (Lg-9 and Lg-16) of the aptamer Lg-18 also have good ability of binding to β-lactoglobulin.

Data set [2] concerns the target BSA (bovine serum albumin) (Bos taurus, UniProt P02769 P02769:25-607). Nature of the data set: specificity control, 50 ug/mL protein, 200 nM aptamer on magnetic beads; text states good specificity, values only in figure. Particulars: label: 5'-FAM (fluorescence assay); stem-loop (Mfold predicted). As to the method:
(§2) Various concentrations (10 nM, 25 nM, 50 nM, 75 nM, 100 nM, 150 nM, 200 nM, and 300 nM) of the aptamer were respectively mixed with the biotinylated complementary short chain at a molar ratio of 1:1.5, denatured at 95° C. for 10 min, and slowly cooled to 37° C. for 3 h until the two were fully hybridized. The mixture was reacted with a certain amount of streptavidin-coupled magnetic beads (where the weight ratio of the aptamer to the magnetic beads was 1:400) at 37° C. and 200 rpm for 2 h to immobilize the aptamer on the magnetic beads by the strong binding between the biotin and streptavidin. The immobilized magnetic beads were incubated with 50 μg/mL β-lactoglobulin in a 300 μL system at 37° C. and 200 rpm. After magnetic separation, the supernatant was subjected to fluorescence measurement at an excitation wavelength of 485 nm and an emission wavelength of 522 nm. The relative fluorescence intensity at various aptamer concentrations was nonlinearly fitted by GraphPad prism 5.0 software, and the dissociation constant Kd of the aptamer was calculated (see Table 1). […]
(§3) The specificity of the aptamer (Lg-18) was evaluated by the same method. […] After magnetic separation, the fluorescence intensity of the supernatant was measured respectively, and then the specificity of the aptamer was evaluated.

The target in another data set is T2, alpha-lactalbumin (UniProt P00711 P00711:20-142).
T2 sequence: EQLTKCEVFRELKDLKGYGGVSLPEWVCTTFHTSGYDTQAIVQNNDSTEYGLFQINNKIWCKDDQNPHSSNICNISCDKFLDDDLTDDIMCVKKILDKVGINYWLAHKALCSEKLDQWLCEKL
The description is as above. Particulars: label: 5'-FAM (fluorescence assay); stem-loop (Mfold predicted). As to the method: as §2, §3

Data set [3] concerns the target T1, beta-lactoglobulin. Nature of the data set: magnetic bead strand-displacement fluorescence assay, 37 C. The settings on record: label: 5'-FAM (fluorescence assay). The protocol:
as §1

Usually Kd stands for a measure of binding affinity in units of concentration.

BSA (bovine serum albumin), sequence (P02769 25-607, one chain of several): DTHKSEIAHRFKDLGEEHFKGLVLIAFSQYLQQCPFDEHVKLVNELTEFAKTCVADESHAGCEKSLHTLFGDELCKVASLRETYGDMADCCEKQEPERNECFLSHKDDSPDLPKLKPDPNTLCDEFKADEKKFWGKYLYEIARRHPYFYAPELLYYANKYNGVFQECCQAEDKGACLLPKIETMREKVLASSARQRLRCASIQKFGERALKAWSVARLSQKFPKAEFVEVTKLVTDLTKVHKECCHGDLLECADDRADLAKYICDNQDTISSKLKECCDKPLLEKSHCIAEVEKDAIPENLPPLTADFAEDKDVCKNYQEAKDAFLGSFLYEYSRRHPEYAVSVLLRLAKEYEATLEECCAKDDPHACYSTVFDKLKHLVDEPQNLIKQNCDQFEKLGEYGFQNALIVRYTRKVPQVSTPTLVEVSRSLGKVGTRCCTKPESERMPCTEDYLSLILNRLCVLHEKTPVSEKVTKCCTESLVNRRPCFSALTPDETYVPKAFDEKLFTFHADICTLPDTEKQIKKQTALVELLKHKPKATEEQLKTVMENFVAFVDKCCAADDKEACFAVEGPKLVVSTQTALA

B1: Lg-18 (ssDNA)
DNA: AGCAGCACAGAGGTCAGATGTTCGGCCTTTGCGTTAACGAACTTCTAGCTATGCGGCGTACCTATGCGTGCTACCGTGAA
With B1, the Kd in the data set with beta-lactoglobulin [1] is 65 nM. Besides, the binding result (in data set [2]; with alpha-lactalbumin) was “no binding” in each case.

B2: Lg-9 (ssDNA)
DNA: AGCAGCACAGAGGTCAGATGGTTTTGTTGGGTCTGCTACGGACTTTGTTGACCTTTGCTCCCTATGCGTGCTACCGTGAA
In the data set with beta-lactoglobulin [3], B2 registered a Kd of 71.8 nM.

B3: Lg-16 (ssDNA)
DNA: AGCAGCACAGAGGTCAGATGTCGTTTGTGGCTGTCAATTGGTGTGTTTACCTGTTTTGGCCTATGCGTGCTACCGTGAA
Regarding B3, the Kd with beta-lactoglobulin [3] is 65.8 nM.

(Values after patent US20220340905, “NUCLEIC ACID APTAMER SPECIFICALLY RECOGNIZING B-LACTOGLOBULIN AND USE THEREOF” (JIANGNAN UNIVERSITY, published 2022).)
